Target: T1, MBP-TNFR1^ECD deletion mutant ΔCRD1 (human, UniProt P19438 22-211)
T1 chain: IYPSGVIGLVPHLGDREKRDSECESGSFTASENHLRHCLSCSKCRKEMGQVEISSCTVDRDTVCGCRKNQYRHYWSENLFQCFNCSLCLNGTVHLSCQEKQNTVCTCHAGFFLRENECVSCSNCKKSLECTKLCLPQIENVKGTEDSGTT
Test: ITC

B1: Staphylococcal superantigen-like protein 10 (SSL10), residues 31-227, C-terminal 6xHis (natural protein)
chain: KQNQKSVNKHDKEALYRYYTGKTMEMKNISALKHGKNNLRFKFRGIKIQVLLPGNDKSKFQQRSYEGLDVFFVQEKRDKHDIFYTVGGVIQNNKTSGVVSAPILNISKEKGEDAFVKGYPYYIKKEKITLKELDYKLRKHLIEKYGLYKTISKDGRVKISLKDGSFYNLDLRSKLKFKYMGEVIESKQIKDIEVNLK
Q: With B1 as the binder, how does the Kd read?
A: 11.1 µM

Source: paper PMC9374677 (2022)
